{
  "source": "patent US20130095122A1",
  "about": "“Peptides or Antibodies Which Bind to Melanoma Inhibitory Activity (MIA) Protein” (priority 2010, published 2013)",
  "molecules": {"B1": {"name": "melanoma inhibitory activity (MIA) protein, recombinant human wild type (other)", "chain": "GPMPKLADRKLCADQECSHPISMAVALQDYMAPDCRFLTIHRGQVVYVFSKLKGRGRLFWGGSVQGDYYGDLAARLGYFPSSIVREDQTLKPGKVDVKTDKWDFYCQ", "notes": "In the HTFP assay one copy is labelled with Ru(bpy)3 (in solution) and the other is a biotin conjugate immobilised on streptavidin plates; 15N-enriched MIA was used for NMR; also called wt MIA; MIA wt (RTS)"}, "B2": {"name": "MIA mutant D29G/Y69H (other)", "chain": "B1 chain with D29G, Y69H", "notes": "Expressed in the RTS in vitro transcription/translation system"}, "B3": {"name": "MIA mutant V46F/S81P (other)", "chain": "B1 chain with V46F, S81P", "notes": "as for B2"}, "B4": {"name": "MIA mutant T89P (other)", "chain": "B1 chain with T89P", "notes": "as for B2"}, "B5": {"name": "MIA mutant K91N (other)", "chain": "B1 chain with K91N", "notes": "as for B2"}, "B6": {"name": "peptide AR71 (Ac-FHWRYPLPLPGQ-NH2) (peptide)", "peptide": "Ac-FHWRYPLPLPGQ-NH2", "notes": "Dodecapeptide previously identified by phage display"}, "B7": {"name": "peptide JPT62 (peptide)", "peptide": "FHWRYPLPLPGQHHHHHH"}, "B8": {"name": "peptide JPT26 (peptide)", "peptide": "WHWRYP", "notes": "also called WHWRYP"}, "B9": {"name": "peptide JPT79 (peptide)", "peptide": "FHWRYPDPDPGQ"}, "B10": {"name": "peptide JPT61 (peptide)", "peptide": "HHHHHHFHWRYPLPLPGQ"}, "B11": {"name": "peptide JPT4 (peptide)", "peptide": "FHWRYPGPGPGQ"}, "B12": {"name": "peptide JPT55 (peptide)", "peptide": "FHWH", "notes": "also called FHWH"}, "B13": {"name": "MIA mutant G61R (other)", "chain": "B1 chain with G61R", "notes": "Expressed in the RTS in vitro transcription/translation system, unpurified"}},
  "key": {"Mel Im melanoma cells": {"tested_on": "Mel Im melanoma cells", "assay": "Boyden chamber invasion assay (MIA activity)", "assay_type": "cell-based, human", "settings": "MIA pre-incubated with peptide, Mel Im cells (FIG. 7)", "description": "Invasion assays were performed in Boyden Chambers containing polycarbonate filters with 8-μm pore size (Neuro Probe, Gaithersburg, Md., USA) essentially as described previously.^13 Filters were coated with matrigel, a commercially available reconstituted basement membrane (diluted 1:3 in H2O; BD Bioscience, Bradford, Mass., USA). The lower compartment was filled with fibroblast-conditioned medium used as a chemo attractant. Mel Im melanoma cells were harvested by trypsinization for 2 min at RT, resuspended in DMEM without FCS at a density 2.5×10^4 cells/mL, and placed in the upper compartment of the chamber. Except for the control experiment with untreated cells and experiments where cells were only treated with the respective peptide, MIA was added to the cell suspension at a final concentration of 200 ng/mL. Peptide AR71 (sequence: Ac-FHWRYPLPLPGQ-NH2) was used at a final concentration of 1 μM. MIA expressing murine B16 melanoma cells stably co-transfected with Sig-AR71-HisTag containing pCMX-PL1 vector^27 and an antibiotic resistance comprising plasmid (pCDNA3), and the respective mock control were also investigated for their ability to migrate. Therefore, cells were harvested by trypsinization for 2 min at RT, resuspended in DMEM without FCS at a density 2.5×10^4 cells/mL, and placed in the upper compartment of the chamber. After incubation at 37° C. for 4 h filters were removed. Cells adhering to the lower surface of the filter were fixed, stained, and counted. Experiments were carried out in triplicates and repeated at least three times."}, "hMSC": {"tested_on": "hMSC", "assay": "Hanging drop assay (chondrogenic differentiation)", "assay_type": "cell-based, human", "settings": "after day 4 (FIG. 9)", "description": "To generate spheroids the hMSC were detached from the culture flask by adding 1 ml Trypsin-EDTA (Provitro). After incubation for a 5 minutes 1 ml neutralizing solution (Provitro) and 8 ml HMSC proliferation medium were added. After centrifugation for 4 min at 1200 rpm and resuspension in Incomplete Chondrogenesis Induction Medium (DMEM with glucose (4.5 g/L), penicillin (400 units/ml) streptomycin (50 μg/ml), L-glutamine (300 μg/ml), sodium pyruvate (1 mM), L-ascorbic acid 2-phosphate (0.17 mM), L-proline ([…]), dexamethasone (1 μM) and ITS premix (BD Biosciences, Heidelberg, Germany)), the cells were counted and adjusted to 50,000 cells/ml. 20% methocel (6 g methyl cellulose (Sigma-Aldrich, Munich, Germany), 250 ml basal medium)) was added and 25 μl of the cells suspension were dropped onto the cover of a 9 mm petri dish. For each experimental condition 10 drops were used. The petri dish was filled with PBS and the cover dish was inverted and incubated for 72 h under a humidified atmosphere of 8% CO2 at 37° C. for 1, 2, 4 and 7 d followed by RNA isolation or alcian blue staining. For treatment, TGF-beta3 (10 ng/ml, Biomol, Hamburg, Germany) was added. At day 4 NA was extracted and analysed. The experiment was repeated 4 times."}, "MIA protein dimer": {"biological_target": "T1, MIA protein dimer (Homo sapiens, UniProt Q16674)", "T1 construct": "made in house; host or cells: cell-free Rapid Translation System RTS 500 E. coli HY Disulfite Kit (Roche)", "T1 sequence (Q16674 25-131)": "B1 chain", "assay": "Western blot analysis of MIA dimer bands", "assay_type": "biochemical", "settings": "western blotting, FIG. 6", "description": "(§1) Protein samples were denaturated at 70° C. for 10 min after addition of reducing and denaturing Roti-Load buffer (Roth, Karlsruhe, Germany) and subsequently separated on sodium dodecyl sulfate 12.75% polyacrylamid gels (SDS-PAGE) (Invitrogen, Groningen, The Netherlands). In the multimerization studies, MIA protein (1 μg) was incubated with AR71 (2.5 μg) overnight at RT before being treated as described above. After transferring the proteins onto a polyvinylidene fluoride (PVDF) membrane (BioRad, Richmond, Va., USA), the membrane was blocked using 3% BSA/PBS for 1 h at RT and incubated with a 1:150 dilution of primary polyclonal rabbit anti MIA antibody (Biogenes, Berlin, Germany) in 3% BSA/PBS overnight at 4° C. After washing in PBS the membrane was incubated with a 1:2000 dilution of an […] coupled secondary antibody (Chemikon, Hofheim, Germany) for 2 h at RT. Finally, after washing steps, immunoreactions were visualized by nitro blue tetrazolium/5-bromo-4-chloro-3-indolyl phosphate (NBT/BCIP) (Invitrogen, Karlsruhe, Germany) staining."}, "Sox9 mRNA in human MSC": {"tested_on": "Sox9 mRNA in human MSC", "assay": "Micromass assay (chondrogenic differentiation induced by TGFβ3)", "assay_type": "cell-based", "settings": "after days 3 and 7 (FIG. 8)", "description": "For analysis of chondrogenesis human MSC differentiation was performed in high density culture. For this, 3×10^5 cells were seeded into each well of a six-well plate. Cells were cultured for the indicated period in induction medium including DMEM (PAA), high glucose (Sigma), 20% fetal calf serum (FCS, PAN Biotech GmbH), MEM Vitamins (Invitrogen), penicillin (100 U/ml), streptomycin (10 μg/ml) (both Sigma), Amphotericin B (2.5 μg/ml) (PAN Biotech GmbH), 0.1 μM dexamethasone, 1 mM sodium pyruvate, 0.17 mM ascorbic acid-2-phosphate, 0.35 mM proline (all Sigma), insulin (5 μg/ml), transferring (5 μg), selenious acid (5 ng) (ITS Premix, Becton Dickinson) and 10 ng/ml human TGF-β3 (R&D Systems). The medium was changed every second day. All groups were done in triplicate. Each experiment was repeated three times. Analysis was performed on RNA level."}, "[1]": {"biological_target": "the molecule itself", "assay": "HTFP assay: MIA-Ru(bpy)3 on immobilised MIA-biotin, increase in FP signal", "description": "(§2) In the control lanes the FP signal of MIA-Ru(bpy)₃ was measured in a well coated with MIA-biotin compared to an uncoated well. The significant increase in FP in the well coated with MIA-biotin indicates binding of MIA-Ru(bpy)₃ to the immobilized MIA-biotin. The binding of MIA-inhibitory compound AR71 promotes dissociation of MIA dimers and displaces the surface-bound MIA-Ru(bpy)₃, as reflected by a decrease in fluorescence polarization signal. […] Pre-incubation of MIA with the respective inhibitory peptide results in a complete neutralization of the MIA effect.\n(§3) All measurements were performed at RT on a Polarstar Optima microplate reader (BMG Labtech, Offenburg, Germany). A 390-10 nm bandpass filter was used for excitation while a 520 nm longpass filter was used for the emission light. Even though the extinction coefficient is higher at longer wavelengths, the inventors chose a shorter excitation wavelength as this led to higher polarization values. MIA-Ru(bpy)₃ was prepared and tested for functional activity as described previously.¹⁴ A MIA-Ru(bpy)₃ concentration of 55 fM was used in all experiments. […] All measurements were performed in DPBS without calcium or magnesium (PAN Biotech GmbH, Aidenbach, Germany)."}, "[2]": {"biological_target": "the molecule itself", "assay": "Western blot, dimer band (FIG. 1B legend)", "description": "as §1, with “In” for “Protein samples were denaturated at 70° C. for 10 min after addition of reducing and denaturing Roti-Load buffer (Roth, Karlsruhe, Germany) and subsequently separated on sodium dodecyl sulfate 12.75% polyacrylamid gels (SDS-PAGE) (Invitrogen, Groningen, The Netherlands). In”\n(§4) Having identified the most likely positions of the dimerization interfaces, mutants of MIA were tested for their capability to form dimers by Western blot analysis (FIG. 1B). MIA mutants were expressed in an in vitro transcription/translation system. […] The sites of mutations not affecting functional activity (FIG. 1D, depicted by amino acid labels D29, S81 etc.) are located outside the dimerization regions, whereas G61R (FIG. 1D, depicted by G61) is buried in the dimerization cleft (depicted by the darker grey are in the left panel) in close proximity to the distal loop."}, "[3]": {"biological_target": "B1", "assay": "HTFP competition assay: displacement of MIA-Ru(bpy)3 from immobilised MIA-biotin", "description": "as §2, §3"}, "[4]": {"biological_target": "B1", "assay": "HTFP competition assay"}, "[5]": {"biological_target": "the molecule itself", "assay": "Western blot for dimer band, RTS-expressed mutant", "description": "as §1, with “In” for “Protein samples were denaturated at 70° C. for 10 min after addition of reducing and denaturing Roti-Load buffer (Roth, Karlsruhe, Germany) and subsequently separated on sodium dodecyl sulfate 12.75% polyacrylamid gels (SDS-PAGE) (Invitrogen, Groningen, The Netherlands). In”\nas §4"}},
  "note": "Where a chain is given by its changes, count along the chain named. Numbers in names are those of the source.",
  "data": [
    {"molecule": "WWW (Peptide Sequence identified from HTFP assay screening) [JPT73]", "values": [
      {"measurement": "inhibition of MIA-activity (neutralization of the MIA effect on invasion)", "setting": "Mel Im melanoma cells", "result": "inhibit MIA-activity"},
      {"measurement": "induction of Aggrecan during differentiation", "setting": "hMSC", "result": "inhibit the induction"},
      {"measurement": "induction of Sox9 during differentiation", "setting": "hMSC", "result": "inhibit the induction"},
      {"measurement": "induction of collagen type II during differentiation", "setting": "hMSC", "result": "inhibit the induction"}
    ]},
    {"molecule": "FHWRYPDPDPGQ (Peptide Sequence identified from HTFP assay screening) [JPT79]", "values": [
      {"measurement": "inhibition of dimerization of MIA", "setting": "MIA protein dimer", "result": "efficiently inhibited"}
    ]},
    {"molecule": "WHF (Peptide Sequence identified from HTFP assay screening) [JPT67]", "values": [
      {"measurement": "inhibition of MIA-activity (neutralization of the MIA effect on invasion)", "setting": "Mel Im melanoma cells", "result": "inhibit MIA-activity"}
    ]},
    {"molecule": "FHWH (Peptide Sequence identified from HTFP assay screening) [JPT55]", "values": [
      {"measurement": "induction of Aggrecan during differentiation", "setting": "hMSC", "result": "inhibit the induction"},
      {"measurement": "induction of Sox9 during differentiation", "setting": "hMSC", "result": "inhibit the induction"},
      {"measurement": "induction of collagen type II during differentiation", "setting": "hMSC", "result": "inhibit the induction"}
    ]},
    {"molecule": "HHH (Peptide Sequence identified from HTFP assay screening) [JPT71]", "values": [
      {"measurement": "induction of Sox9 mRNA by TGFβ3", "setting": "Sox9 mRNA in human MSC", "result": "inhibit the induction of Sox9 mRNA by TGFβ3 significantly"}
    ]},
    {"molecule": "B1", "values": [
      {"measurement": "binding result", "setting": "[1]", "result": "binds"}
    ]},
    {"molecule": "B2", "values": [
      {"measurement": "binding result", "setting": "[2]", "result": "binds"}
    ]},
    {"molecule": "B3", "values": [
      {"measurement": "binding result", "setting": "[2]", "result": "binds"}
    ]},
    {"molecule": "B4", "values": [
      {"measurement": "binding result", "setting": "[2]", "result": "binds"}
    ]},
    {"molecule": "B5", "values": [
      {"measurement": "binding result", "setting": "[2]", "result": "binds"}
    ]},
    {"molecule": "B6", "values": [
      {"measurement": "binding result", "setting": "[3]", "result": "binds"}
    ]},
    {"molecule": "B7", "values": [
      {"measurement": "binding result", "setting": "[4]", "result": "binds"}
    ]},
    {"molecule": "B8", "values": [
      {"measurement": "binding result", "setting": "[4]", "result": "binds"}
    ]},
    {"molecule": "B9", "values": [
      {"measurement": "binding result", "setting": "[4]", "result": "binds"}
    ]},
    {"molecule": "B10", "values": [
      {"measurement": "binding result", "setting": "[4]", "result": "binds"}
    ]},
    {"molecule": "B11", "values": [
      {"measurement": "binding result", "setting": "[4]", "result": "binds"}
    ]},
    {"molecule": "B12", "values": [
      {"measurement": "binding result", "setting": "[4]", "result": "binds"}
    ]},
    {"molecule": "B13", "values": [
      {"measurement": "binding result", "setting": "[5]", "result": "no binding"}
    ]}
  ]
}
